Key:
GST-OST1/SnRK2.6 = GST-OST1/SnRK2.6 (UniProt Q940H6)
GST-SnRK2.4 = biological target: T1, GST-SnRK2.4 (UniProt P43291)
T1 sequence: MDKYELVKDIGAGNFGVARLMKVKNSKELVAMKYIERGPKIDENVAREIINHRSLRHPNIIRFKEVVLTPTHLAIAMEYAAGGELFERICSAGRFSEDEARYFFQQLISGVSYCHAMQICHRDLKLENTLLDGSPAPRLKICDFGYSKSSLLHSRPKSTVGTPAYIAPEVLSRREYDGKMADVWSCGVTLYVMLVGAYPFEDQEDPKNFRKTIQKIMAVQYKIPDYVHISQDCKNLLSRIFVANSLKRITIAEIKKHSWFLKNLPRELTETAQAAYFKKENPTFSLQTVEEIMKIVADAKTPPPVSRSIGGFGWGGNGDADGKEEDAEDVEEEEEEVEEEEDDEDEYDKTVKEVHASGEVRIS

[1] = biological target: T2, dephosphorylated recombinant His-OST1/SnRK2.6 (UniProt Q940H6)
T2 sequence: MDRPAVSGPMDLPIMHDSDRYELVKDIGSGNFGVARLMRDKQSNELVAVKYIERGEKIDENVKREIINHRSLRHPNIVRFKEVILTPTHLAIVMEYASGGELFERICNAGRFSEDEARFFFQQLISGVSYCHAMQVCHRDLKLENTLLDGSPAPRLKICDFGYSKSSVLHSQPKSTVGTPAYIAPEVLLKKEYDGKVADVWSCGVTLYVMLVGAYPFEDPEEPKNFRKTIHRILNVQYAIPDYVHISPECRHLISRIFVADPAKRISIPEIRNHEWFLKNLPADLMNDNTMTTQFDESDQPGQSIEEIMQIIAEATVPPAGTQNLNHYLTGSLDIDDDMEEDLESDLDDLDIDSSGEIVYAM

GST-SnRK2.3 = biological target: T3, GST-SnRK2.3 (UniProt Q39193)
T3 sequence: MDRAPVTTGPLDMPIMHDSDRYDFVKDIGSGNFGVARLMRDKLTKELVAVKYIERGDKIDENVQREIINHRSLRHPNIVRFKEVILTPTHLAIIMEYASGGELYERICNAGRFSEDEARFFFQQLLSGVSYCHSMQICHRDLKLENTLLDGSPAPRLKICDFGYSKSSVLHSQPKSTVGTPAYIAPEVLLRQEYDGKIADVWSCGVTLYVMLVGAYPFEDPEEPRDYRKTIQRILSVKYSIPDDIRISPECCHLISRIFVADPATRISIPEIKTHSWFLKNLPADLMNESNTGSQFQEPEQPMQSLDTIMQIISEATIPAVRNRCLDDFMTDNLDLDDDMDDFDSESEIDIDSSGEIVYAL

GST-SnRK2.2 = biological target: T4, GST-SnRK2.2 (UniProt Q39192)
T4 sequence: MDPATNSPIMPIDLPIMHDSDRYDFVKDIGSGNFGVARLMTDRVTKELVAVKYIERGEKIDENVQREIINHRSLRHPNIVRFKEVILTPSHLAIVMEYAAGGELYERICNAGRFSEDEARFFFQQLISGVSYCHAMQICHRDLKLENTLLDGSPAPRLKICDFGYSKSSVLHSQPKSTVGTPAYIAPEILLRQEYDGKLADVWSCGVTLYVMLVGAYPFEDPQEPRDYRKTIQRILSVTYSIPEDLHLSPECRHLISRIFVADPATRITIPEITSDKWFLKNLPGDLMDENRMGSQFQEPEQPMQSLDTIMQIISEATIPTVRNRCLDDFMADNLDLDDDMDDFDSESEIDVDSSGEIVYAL

GST-OST1/SnRK2.6 (D140A) = GST-OST1/SnRK2.6 (D140A) (UniProt Q940H6)

CPK23, sequence (chain, as listed by the source): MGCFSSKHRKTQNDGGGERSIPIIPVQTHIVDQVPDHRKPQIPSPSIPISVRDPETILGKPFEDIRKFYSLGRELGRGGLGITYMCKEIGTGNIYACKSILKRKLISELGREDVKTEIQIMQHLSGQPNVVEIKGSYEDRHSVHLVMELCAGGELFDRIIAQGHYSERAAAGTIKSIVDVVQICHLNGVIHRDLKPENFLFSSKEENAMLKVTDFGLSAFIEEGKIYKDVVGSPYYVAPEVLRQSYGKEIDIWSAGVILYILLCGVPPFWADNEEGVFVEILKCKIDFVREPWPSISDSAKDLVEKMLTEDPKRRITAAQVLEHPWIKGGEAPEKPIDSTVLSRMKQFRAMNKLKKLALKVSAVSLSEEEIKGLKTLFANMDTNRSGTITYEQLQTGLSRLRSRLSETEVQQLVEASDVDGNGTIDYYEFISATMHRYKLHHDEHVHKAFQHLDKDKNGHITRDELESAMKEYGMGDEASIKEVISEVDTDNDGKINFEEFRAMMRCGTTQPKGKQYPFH

| Substance | OST1/SnRK2.6 activity, in-gel kinase assay in vitro [1] | SnRK2 kinase activity, in-gel kinase assay in vitro (GST-SnRK2.3) | in vitro phosphorylation assay with 32P-ATP (GST-OST1/SnRK2.6 (D140A)) | further results |
| --- | --- | --- | --- | --- |
| CPK6 |  |  |  | in vitro phosphorylation assay with 32P-ATP after dephosphorylation of OST1 (GST-OST1/SnRK2.6): did not phosphorylate OST1/SnRK2.6 after dephosphorylation |
| CPK23 |  |  |  | in vitro phosphorylation assay with 32P-ATP after dephosphorylation of OST1 (GST-OST1/SnRK2.6): did not phosphorylate OST1/SnRK2.6 after dephosphorylation |
| GST-M3Kδ1 kinase domain | three M3Ks from the subgroup B3, named M3Kδ1, 66 and 67, were found to strongly activate OST1/SnRK2.6 | M3Kδ1 strongly activated SnRK2.2 and 2.3 | the M3Kδ1, 66 and 67 kinase domains directly phosphorylated the kinase inactive OST1/SnRK2.6 (D140A) mutant isoform | SnRK2 kinase activity, in-gel kinase assay in vitro (GST-SnRK2.4): M3Kδ1 also activated SnRK2.4 kinase in vitro; OST1/SnRK2.6 activity, in-gel kinase assay in vitro (GST-OST1/SnRK2.6): the truncated kinase domain (M3Kδ1_KD) has a higher activity than the full length M3Kδ1 protein (M3Kδ1_Full); SnRK2 kinase activity, in-gel kinase assay in vitro (GST-SnRK2.2): M3Kδ1 strongly activated SnRK2.2 and 2.3; phosphorylation sites by LC-MS/MS after in vitro phosphorylation (GST-OST1/SnRK2.6 (D140A)): M3Kδ1 phosphorylated the OST1/SnRK2.6 residues Ser171, Ser175 and Thr176 in the OST1 activation loop |
| GST-M3Kδ6 kinase domain | three M3Ks from the subgroup B3, named M3Kδ1, 66 and 67, were found to strongly activate OST1/SnRK2.6 | SnRK2.3 was also activated by M3Kδ6 and M3Kδ7 | the M3Kδ1, 66 and 67 kinase domains directly phosphorylated the kinase inactive OST1/SnRK2.6 (D140A) mutant isoform |  |
| GST-M3Kδ7 kinase domain | three M3Ks from the subgroup B3, named M3Kδ1, 66 and 67, were found to strongly activate OST1/SnRK2.6 | SnRK2.3 was also activated by M3Kδ6 and M3Kδ7 | the M3Kδ1, 66 and 67 kinase domains directly phosphorylated the kinase inactive OST1/SnRK2.6 (D140A) mutant isoform |  |
| M3Kδ6 kinase domain mutant (K775W) | OST1/SnRK2 kinase activation was not induced by an inactive mutant M3K kinase protein, M3Kδ6 (K775W) |  |  |  |
| full-length His-M3Kδ1 |  |  |  | OST1/SnRK2.6 activity, in-gel kinase assay in vitro (GST-OST1/SnRK2.6): Full-length M3Kδ1 activates OST1/SnRK2.6 in vitro |

Reference: patent US20220154204
